Data reported in the Human Domainome abundance scans (Beltran et al. 2025).

B1: Activity-dependent neuroprotector homeobox protein, residues 770 to 810; numbered along this chain, Q9H2P0 (parent)
chain: FLTKYFNKQPYPTRREIEKLAASLWLWKSDIASHFSNKRKK

Variants of: B1
Experiment: abundance fitness (aPCA) (normalised: wild type 0, dead -1); higher = more abundant; growth selection in yeast, the domain comes from the species named
Conditions: Homo sapiens

Abundance fitness of substitutions, site by site:
T3: K 0.262 | A -0.303 | V -0.544 | P -0.935 | N 0.167 | G -0.132 | Y -0.619 | E -0.059 | C -0.536 | L -0.759 | Q -0.164
L20: S -0.243 | I -0.005 | N -0.152 | D -0.322 | F 0.042 | R -0.144 | C 0.124 | E -1.02 | W 0.257 | G -0.181 | V -0.025
A21: K 0.138 | E -0.39 | S -0.012 | P -0.3 | R -0.021 | V -0.128 | M 0.083 | C -0.099
P10: T 0.011 | Y -0.155 | V 0.062 | W 0.059 | N 0.09 | E 0.158 | C 0.011 | G -0.129
Y5: I -0.094 | K -0.183 | N -0.564 | G -0.812
S29: V -0.302 | Q 0.173 | R -0.088 | M -0.124 | F -0.43 | C -0.206 | K 0.208
R39: N -0.012 | W 0.009 | Q -0.195 | P -0.232 | I -0.035 | S -0.085 | A -0.076 | G -0.195
S23: I -0.432 | D -0.002 | P -0.12 | W -0.091 | H -0.103 | M -0.36 | R 0.276 | C -0.119 | K 0.262
Q9: L -0.149 | A -0.269 | C -0.014 | E -0.075 | T -0.053 | R 0.039 | S -0.139 | I -0.074 | G -0.133 | W -0.823
N7: C -0.455 | W -0.958 | I -1.17 | E -0.058 | M -0.76 | Y -0.712 | P 0.017 | S -0.107
P12: S -0.102 | F -0.402 | E 0.059 | W -0.235 | D 0.092 | Q -0.036
A32: S -0.196 | R 0.029
K4: C -0.698 | R -0.549 | G -1.07 | T -0.877 | A -0.735 | S -0.749 | D -0.644
K19: A -0.52 | V -0.502 | F -0.944 | Q -0.276 | H -0.413 | G -0.221 | T -0.302
W25: V 0.133 | L 0.097 | F -0.168 | P -0.176 | R 0.254 | K 0.361 | Q 0.068 | M -0.009 | E 0.13 | S 0.134
S33: M -0.061 | Y -0.381 | V -0.276 | P -0.01 | W -0.147 | R 0.032 | A 0.014 | H 0.018 | D -0.267 | L -0.154 | T -0.076
H34: V 0.117 | K 0.022 | T -0.128 | S -0.02 | G -0.043 | M 0.043
E16: S -0.036 | W 0.173 | F 0.304 | V -0.168 | T -0.065 | K 0.095
E18: K 0.172 | P -0.189 | Y -0.378 | N -0.213 | V -0.509 | T -0.176 | R 0.066 | I -0.749 | Q 0.061
S36: A -0.049 | Y -0.37 | E -0.395 | V -0.262 | T 0.059 | W -0.177 | G 0.083 | R 0.087 | P -0.047 | H 0.01 | Q -0.085 | M -0.037 | L -0.316
K28: W 0.13 | A 0.333 | P 0.257 | Y -0.443 | F 0.435 | G 0.048
